Measured values reported in patent US20120208744A1, “ANTI-MICROBIAL AGENTS AND COMPOSITIONS AND METHODS OF PRODUCTION AND USE THEREOF” (The Penn State Research Foundation, priority 2011, published 2012).

Tested on: E. coli
Assay: Spot titer assay (sensitivity to TonB-dependent colicins and bacteriophage)
Assay type: cell-based, Escherichia coli
Conditions: three platings
Procedure: Activity assays: Spot titer assays were performed. Initial rates of [^55Fe]-ferrichrome uptake were determined.
Spot titers, which are capable of detecting very low levels of TonB activity, measure sensitivity to colicins and bacteriophage that enter and subsequently kill E. coli via the TonB system. […] Consistent with their insensitivity to phage and colicins, the other 13 deletion variants supported no iron transport.

[1] = strain RA1017 (ΔExbBD, ΔTolQRA)
[2] = strain RA1017/pKP724 (ExbB, ExbDΔ132-141)
[3] = strain RA1017/pKP752 (ExbB, ExbDΔ102-111)
[4] = strain RA1017/pKP753 (ExbB, ExbDΔ92-101)
[5] = strain RA1017/pKP754 (ExbB, ExbDΔ82-91)
[6] = strain RA1017/pKP755 (ExbB, ExbDΔ72-81)
[7] = strain RA1017/pKP756 (ExbB, ExbDΔ62-71)
[8] = strain RA1017/pKP757 (ExbB, ExbDΔ52-61)
[9] = strain RA1017/pKP758 (ExbB, ExbDΔ32-41)
[10] = strain RA1017/pKP759 (ExbB, ExbDΔ22-31)
[11] = strain RA1017/pKP760 (ExbB, ExbDΔ12-21)
[12] = strain RA1017/pKP762 (ExbB, ExbDΔ42-51)
[13] = strain RA1017/pKP763 (ExbB, ExbDΔ112-121)
[14] = strain RA1017/pKP764 (ExbB, ExbDΔ122-131)

Measured: Susceptibility: highest five-fold dilution of a standard colicin preparation that provided an evident zone of clearing on a cell lawn

B1: Colicin Ia: TonB-dependent colicin; standard colicin preparation used in spot titers (protein, UniProt P06716 1-626, looked up)
Colicin-Ia: MSDPVRITNPGAESLGYDSDGHEIMAVDIYVNPPRVDVFHGTPPAWSSFGNKTIWGGNEWVDDSPTRSDIEKRDKEITAYKNTLSAQQKENENKRTEAGKRLSAAIAAREKDENTLKTLRAGNADAADITRQEFRLLQAELREYGFRTEIAGYDALRLHTESRMLFADADSLRISPREARSLIEQAEKRQKDAQNADKKAADMLAEYERRKGILDTRLSELEKNGGAALAVLDAQQARLLGQQTRNDRAISEARNKLSSVTESLNTARNALTRAEQQLTQQKNTPDGKTIVSPEKFPGRSSTNHSIVVSGDPRFAGTIKITTSAVIDNRANLNYLLSHSGLDYKRNILNDRNPVVTEDVEGDKKIYNAEVAEWDKLRQRLLDARNKITSAESAVNSARNNLSARTNEQKHANDALNALLKEKENIRNQLSGINQKIAEEKRKQDELKATKDAINFTTEFLKSVSEKYGAKAEQLAREMAGQAKGKKIRNVEEALKTYEKYRADINKKINAKDRAAIAAALESVKLSDISSNLNRFSRGLGYAGKFTSLADWITEFGKAVRTENWRPLFVKTETIIAGNAATALVALVFSILTGSALGIIGYGLLMAVTGALIDESLVEKANKFWGI
T, T, T: [1] | [2] | [3] | [4] | [5] | [6] | [7] | [8] | [9] | [10] | [11] | [12] | [13] | [14]

B2: Colicin M: TonB-dependent colicin; standard colicin preparation used in spot titers (protein, UniProt P05820 1-271, looked up)
Colicin-M: METLTVHAPSPSTNLPSYGNGAFSLSAPHVPGAGPLLVQVVYSFFQSPNMCLQALTQLEDYIKKHGASNPLTLQIISTNIGYFCNADRNLVLHPGISVYDAYHFAKPAPSQYDYRSMNMKQMSGNVTTPIVALAHYLWGNGAERSVNIANIGLKISPMKINQIKDIIKSGVVGTFPVSTKFTHATGDYNVITGAYLGNITLKTEGTLTISANGSWTYNGVVRSYDDKYDFNASTHRGIIGESLTRLGAMFSGKEYQILLPGEIHIKESGKR
T, T, T: [1] | [2] | [3] | [4] | [5] | [6] | [7] | [8] | [9] | [10] | [11] | [12] | [13] | [14]

B3: Colicin B: TonB-dependent colicin; toxin that enters and kills E. coli via the TonB system; standard colicin preparation (protein, UniProt P05819 2-511, looked up)
Colicin-B: SDNEGSVPTEGIDYGDTMVVWPSTGRIPGGDVKPGGSSGLAPSMPPGWGDYSPQGIALVQSVLFPGIIRRIILDKELEEGDWSGWSVSVHSPWGNEKVSAARTVLENGLRGGLPEPSRPAAVSFARLEPASGNEQKIIRLMVTQQLEQVTDIPASQLPAAGNNVPVKYRLTDLMQNGTQYMAIIGGIPMTVPVVDAVPVPDRSRPGTNIKDVYSAPVSPNLPDLVLSVGQMNTPVRSNPEIQEDGVISETGNYVEAGYTMSSNNHDVIVRFPEGSGVSPLYISAVEILDSNSLSQRQEAENNAKDDFRVKKEQENDEKTVLTKTSEVIISVGDKVGEYLGDKYKALSREIAENINNFQGKTIRSYDDAMSSINKLMANPSLKINATDKEAIVNAWKAFNAEDMGNKFAALGKTFKAADYAIKANNIREKSIEGYQTGNWGPLMLEVESWVISGMASAVALSLFSLTLGSALIAFGLSATVVGFVGVVIAGAIGAFIDDKFVDELNHKIIK
T, T, T: [1] | [2] | [3] | [4] | [5] | [6] | [7] | [8] | [9] | [10] | [11] | [12] | [13] | [14]
